We go through 29 molecules from US20240199746A1 (published 2024).

Residue numbers refer to the chain shown, from its start.

First the molecules themselves.
B1: LC-A051P (antibody, V domains shown)
VH: EVQLVQSGAEVKKPGATVKISCKVSGYSFTGHTMNWIRQPPGKGLEWIGLIKPSNGGTSYNQKFKGRVTISADKSISTAYLQWSSLKASDTAMYYCAHGHYESYFAMDYWGQGTLVTVSS
VL: DIQMTQSPSSLSASVGDRVTITCKASQDVSSAVAWYQQKPGQAPRLLIYWPSTRHTGVPSRFSGSGSGTEFTLTISSLQPDDFATYYCQEHFSTPLTFGQGTKVEIK
notes: CPE single point mutant
B2: LC-F092N (antibody, V domains shown)
VH: B1 VH
VL: B1 VL with P51A, F92N
notes: CPE single point mutant
B3: LC-H091S (antibody, V domains shown)
VH: B1 VH
VL: B1 VL with P51A, H91S
notes: CPE single point mutant
B4: LC-V029N (antibody, V domains shown)
VH: B1 VH
VL: B1 VL with V29N, P51A
notes: CPE single point mutant
B5: LC-V029D (antibody, V domains shown)
VH: B1 VH
VL: B1 VL with V29D, P51A
notes: CPE single point mutant
B6: LC-P095H (antibody, V domains shown)
VH: B1 VH
VL: B1 VL with P51A, P95H
notes: CPE single point mutant
B7: LC-P095C (antibody, V domains shown)
VH: B1 VH
VL: B1 VL with P51A, P95C
notes: CPE single point mutant
B8: LC-V029G (antibody, V domains shown)
VH: B1 VH
VL: B1 VL with V29G, P51A
notes: CPE single point mutant
B9: LC-H091T (antibody, V domains shown)
VH: B1 VH
VL: B1 VL with P51A, H91T
notes: CPE single point mutant
B10: LC-F092C (antibody, V domains shown)
VH: B1 VH
VL: B1 VL with P51A, F92C
notes: CPE single point mutant
B11: LC-H091Y (antibody, V domains shown)
VH: B1 VH
VL: B1 VL with P51A, H91Y
notes: CPE single point mutant
B12: LC-H091L (antibody, V domains shown)
VH: B1 VH
VL: B1 VL with P51A, H91L
notes: CPE single point mutant
B13: LC-P095W (antibody, V domains shown)
VH: B1 VH
VL: B1 VL with P51A, P95W
notes: CPE single point mutant
B14: LC-F092S (antibody, V domains shown)
VH: B1 VH
VL: B1 VL with P51A, F92S
notes: CPE single point mutant
B15: LC-F092G (antibody, V domains shown)
VH: B1 VH
VL: B1 VL with P51A, F92G
notes: CPE single point mutant
B16: LC-P095A (antibody, V domains shown)
VH: B1 VH
VL: B1 VL with P51A, P95A
notes: CPE single point mutant
B17: LC-P095K (antibody, V domains shown)
VH: B1 VH
VL: B1 VL with P51A, P95K
notes: CPE single point mutant
B18: LC-P095E (antibody, V domains shown)
VH: B1 VH
VL: B1 VL with P51A, P95E
notes: CPE single point mutant
B19: LC-P095V (antibody, V domains shown)
VH: B1 VH
VL: B1 VL with P51A, P95V
notes: CPE single point mutant
B20: LC-P095D (antibody, V domains shown)
VH: B1 VH
VL: B1 VL with P51A, P95D
notes: CPE single point mutant
B21: LC-H091V (antibody, V domains shown)
VH: B1 VH
VL: B1 VL with P51A, H91V
notes: CPE single point mutant
B22: LC-W050F (antibody, V domains shown)
VH: B1 VH
VL: B1 VL with W50F, P51A
notes: CPE single point mutant
B23: LC-P095S (antibody, V domains shown)
VH: B1 VH
VL: B1 VL with P51A, P95S
notes: CPE single point mutant
B24: LC-F092E (antibody, V domains shown)
VH: B1 VH
VL: B1 VL with P51A, F92E
notes: CPE single point mutant
B25: LC-P095T (antibody, V domains shown)
VH: B1 VH
VL: B1 VL with P51A, P95T
notes: CPE single point mutant
B26: LC-V029W (antibody, V domains shown)
VH: B1 VH
VL: B1 VL with V29W, P51A
notes: CPE single point mutant
B27: LC-T097I (antibody, V domains shown)
VH: B1 VH
VL: B1 VL with P51A, T97I
notes: CPE single point mutant
B28: LC-F092D (antibody, V domains shown)
VH: B1 VH
VL: B1 VL with P51A, F92D
notes: CPE single point mutant
B29: LC-H091C (antibody, V domains shown)
VH: B1 VH
VL: B1 VL with P51A, H91C
notes: CPE single point mutant

For the first test, the target named is T1, Ax1 protein, extracellular domain (human, UniProt P30530 26-451).
T1 construct: extracellular domain; also called Axl; Ark
T1 sequence (looked up): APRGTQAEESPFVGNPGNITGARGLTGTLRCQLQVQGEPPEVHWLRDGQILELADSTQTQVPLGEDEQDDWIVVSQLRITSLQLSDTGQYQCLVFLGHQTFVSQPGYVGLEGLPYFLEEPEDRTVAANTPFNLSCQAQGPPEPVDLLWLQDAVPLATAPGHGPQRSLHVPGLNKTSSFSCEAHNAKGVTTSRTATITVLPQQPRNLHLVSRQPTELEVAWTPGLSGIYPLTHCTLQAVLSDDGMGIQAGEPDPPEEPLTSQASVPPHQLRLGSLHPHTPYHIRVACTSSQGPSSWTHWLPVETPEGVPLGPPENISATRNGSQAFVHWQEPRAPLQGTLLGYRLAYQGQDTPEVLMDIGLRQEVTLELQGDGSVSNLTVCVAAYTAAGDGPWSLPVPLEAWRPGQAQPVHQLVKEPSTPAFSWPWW
Description: ELISA, mutant diluted 1:3. From the text:
(§1) The DNA encoding the wild-type antibody was evolved to generate a mutant antibody library using Comprehensive Positional Evolution (CPE), which each position in the template antibody is randomized one at a time. Each mutant antibody in the library has only one single point mutation. The mutant antibodies in the library were generated by simultaneously screening for selective binding affinity to Ax1 at pH 6.0 over pH 7.4 by ELISA. Two mutant antibody dilutions were used: 1:3 and 1:9 dilutions.
In the case of B1, the “Affinity ELISA CPE mutant ratio (1:3, pH 6.0/7.4)” value was 1.92.
B2: the “Affinity ELISA CPE mutant ratio (1:3, pH 6.0/7.4)” value turned out to be 1.93.
As for B3, the “Affinity ELISA CPE mutant ratio (1:3, pH 6.0/7.4)” value was 1.76.
The same measure, in the same setting: the figure for B4 is 2.6; for B5 it is 2.88; for B6 it is 2.5.
As to B7, the “Affinity ELISA CPE mutant ratio (1:3, pH 6.0/7.4)” value came to 2.35.
For the molecule B8, the “Affinity ELISA CPE mutant ratio (1:3, pH 6.0/7.4)” value worked out at 1.94.
Regarding B9, the “Affinity ELISA CPE mutant ratio (1:3, pH 6.0/7.4)” value was found to be 3.78.
Still for that read-out and setting: the figure for B10 is 3.86.
In the case of B11, the “Affinity ELISA CPE mutant ratio (1:3, pH 6.0/7.4)” value amounted to 3.93.
As for B12, the “Affinity ELISA CPE mutant ratio (1:3, pH 6.0/7.4)” value was found to be 2.17.
As for B13, the “Affinity ELISA CPE mutant ratio (1:3, pH 6.0/7.4)” value worked out at 2.15.
With B14, the “Affinity ELISA CPE mutant ratio (1:3, pH 6.0/7.4)” value was found to be 3.18.
On to B15, for which the “Affinity ELISA CPE mutant ratio (1:3, pH 6.0/7.4)” value is 3.69.
Same read-out and setting: the figure for B16 is 2.52.
In the case of B17, the “Affinity ELISA CPE mutant ratio (1:3, pH 6.0/7.4)” value is 3.84.
Turning to B18, the “Affinity ELISA CPE mutant ratio (1:3, pH 6.0/7.4)” value came out at 7.12.
Turning to B19, the “Affinity ELISA CPE mutant ratio (1:3, pH 6.0/7.4)” value was determined as 1.87.
Consider B20, for which the “Affinity ELISA CPE mutant ratio (1:3, pH 6.0/7.4)” value stood at 3.95.
For B21, the “Affinity ELISA CPE mutant ratio (1:3, pH 6.0/7.4)” value worked out at 4.13.
As to B22, the “Affinity ELISA CPE mutant ratio (1:3, pH 6.0/7.4)” value amounted to 2.25.
Consider B23, for which the “Affinity ELISA CPE mutant ratio (1:3, pH 6.0/7.4)” value was 2.84.
Regarding B24, the “Affinity ELISA CPE mutant ratio (1:3, pH 6.0/7.4)” value amounted to 1.76.
The same measure, in the same setting: the figure for B25 is 2.5; for B26 it is 2.31.
For the molecule B27, the “Affinity ELISA CPE mutant ratio (1:3, pH 6.0/7.4)” value is 3.09.
For the molecule B28, the “Affinity ELISA CPE mutant ratio (1:3, pH 6.0/7.4)” value is 2.97.
For the molecule B29, the “Affinity ELISA CPE mutant ratio (1:3, pH 6.0/7.4)” value came out at 4.

A further test deals with T1, Ax1 protein, extracellular domain. Description: ELISA, mutant diluted 1:9.
Text: as §1
A general note: An ELISA detects its analyte on a solid surface through an enzyme-linked reagent.
Take B1: the “Affinity ELISA CPE mutant ratio (1:9, pH 6.0/7.4)” value was found to be 1.57.
B2: the “Affinity ELISA CPE mutant ratio (1:9, pH 6.0/7.4)” value came to 2.
As to B3, the “Affinity ELISA CPE mutant ratio (1:9, pH 6.0/7.4)” value is 1.34.
For the molecule B4, the “Affinity ELISA CPE mutant ratio (1:9, pH 6.0/7.4)” value is 2.65.
In the case of B5, the “Affinity ELISA CPE mutant ratio (1:9, pH 6.0/7.4)” value was 2.68.
Turning to B6, the “Affinity ELISA CPE mutant ratio (1:9, pH 6.0/7.4)” value was 2.75.
For B7, the “Affinity ELISA CPE mutant ratio (1:9, pH 6.0/7.4)” value worked out at 2.63.
B8: the “Affinity ELISA CPE mutant ratio (1:9, pH 6.0/7.4)” value came to 1.8.
As to B9, the “Affinity ELISA CPE mutant ratio (1:9, pH 6.0/7.4)” value amounted to 3.7.
As for B10, the “Affinity ELISA CPE mutant ratio (1:9, pH 6.0/7.4)” value was 4.58.
For B11, the “Affinity ELISA CPE mutant ratio (1:9, pH 6.0/7.4)” value was 5.13.
With B12, the “Affinity ELISA CPE mutant ratio (1:9, pH 6.0/7.4)” value is 2.44.
For the molecule B13, the “Affinity ELISA CPE mutant ratio (1:9, pH 6.0/7.4)” value is 2.26.
On to B14, for which the “Affinity ELISA CPE mutant ratio (1:9, pH 6.0/7.4)” value stood at 2.94.
Same read-out and setting: the figure for B15 is 4.76.
Same read-out and setting: the figure for B16 is 2.99; for B17 it is 3.47; for B18 it is 7.51.
B19: the “Affinity ELISA CPE mutant ratio (1:9, pH 6.0/7.4)” value amounted to 2.13.
B20: the “Affinity ELISA CPE mutant ratio (1:9, pH 6.0/7.4)” value stood at 2.89.
Same read-out and setting: for B21 the value was 1.17.
For the molecule B22, the “Affinity ELISA CPE mutant ratio (1:9, pH 6.0/7.4)” value stood at 3.5.
For B23, the “Affinity ELISA CPE mutant ratio (1:9, pH 6.0/7.4)” value was 3.51.
As for B24, the “Affinity ELISA CPE mutant ratio (1:9, pH 6.0/7.4)” value was determined as 2.
With B25, the “Affinity ELISA CPE mutant ratio (1:9, pH 6.0/7.4)” value turned out to be 2.09.
As for B26, the “Affinity ELISA CPE mutant ratio (1:9, pH 6.0/7.4)” value was 2.35.
For the molecule B27, the “Affinity ELISA CPE mutant ratio (1:9, pH 6.0/7.4)” value came to 4.05.
B28: the “Affinity ELISA CPE mutant ratio (1:9, pH 6.0/7.4)” value was 2.94.
Regarding B29, the “Affinity ELISA CPE mutant ratio (1:9, pH 6.0/7.4)” value amounted to 3.02.
